We go through two molecules from US20080085863A1 (WISCONSIN ALUMNI RESEARCH FOUNDATION, published 2008).

In assay [1] the target is T1, Flag-tagged recombinant bone morphogenetic protein-1 (BMP-1) (UniProt P13497-2 121-730, limits assumed).
T1 sequence (looked up): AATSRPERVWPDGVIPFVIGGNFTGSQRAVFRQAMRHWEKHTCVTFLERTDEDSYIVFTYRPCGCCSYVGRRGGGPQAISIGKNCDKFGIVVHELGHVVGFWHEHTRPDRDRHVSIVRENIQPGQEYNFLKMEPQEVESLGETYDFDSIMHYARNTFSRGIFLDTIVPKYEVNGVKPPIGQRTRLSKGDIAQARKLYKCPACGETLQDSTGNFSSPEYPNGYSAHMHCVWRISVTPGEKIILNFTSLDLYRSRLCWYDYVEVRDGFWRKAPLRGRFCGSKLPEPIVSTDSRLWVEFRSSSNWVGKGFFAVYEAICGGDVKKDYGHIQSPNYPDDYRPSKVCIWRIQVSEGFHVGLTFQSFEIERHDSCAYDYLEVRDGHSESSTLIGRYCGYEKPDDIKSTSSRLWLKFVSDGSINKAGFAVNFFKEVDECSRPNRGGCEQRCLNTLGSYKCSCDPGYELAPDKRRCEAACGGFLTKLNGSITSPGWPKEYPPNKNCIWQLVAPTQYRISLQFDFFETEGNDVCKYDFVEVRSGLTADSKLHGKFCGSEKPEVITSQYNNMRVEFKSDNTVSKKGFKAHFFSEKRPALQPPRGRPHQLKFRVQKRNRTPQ
Kind of assay: cell-based or functional assay.

Assay [2] concerns the target T1, Flag-tagged recombinant bone …. Kind of assay: time course of covalent complex formation of 40 nM 35S-BMP-1 with increasing α2M, SDS-PAGE densitometry (method of Enghild et al.). As to the method:
40 nM ³⁵S-labeled BMP-1 was incubated with 20, 40, 80, 160, and 240 nM plasma α₂M, or recombinant wild type α₂M or with 5, 10, 20, 40, and 80 nM b-α₂M at 37° C. in 50 mM Tris-HCl, pH 7.5, 100 mM NaCl and 10 mM CaCl₂. Reactions were stopped at 10, 30, 60, 90 and 120 minutes (plasma α₂M and recombinant wild type α₂M), or at 2, 5, 10, 20 and 30 minutes (b-α₂M) by adding. SDS-PAGE sample buffer and boiling 5 minutes at 95° C. Protein samples were separated on 7.5% acrylamide SDS-PAGE gels, which were then treated with EN³HANCE (DuPont) and exposed to film. Percentages of BMP-1 incorporated into high molecular weight complexes were determined by densitometry and kinetic parameters were determined essentially via the method of Enghild J, et al, “Interaction of human rheumatoid synovial collagenase (matrix metalloproteinase 1) and stromelysin (matrix metalloproteinase 3) with human alpha 2-macroglobulin and chicken ovostatin. Binding kinetics and identification of matrix metalloproteinase cleavage sites,” J. Biol. Chem. 264:8779-8785 (1989).
To obtain a quantitative comparison of the rates of interaction of BMP-1 with the various wild type and mutant forms of α₂M, we employed the methodology of Enghild et al., supra, which involves quantification of covalent proteinase-α₂M complex formation, subsequent to incubation of radiolabeled proteinase with α₂M.

B1: human α2-macroglobulin from plasma (Sigma-Aldrich) (other)
chain: SVSGKPQYMVLVPSLLHTETTEKGCVLLSYLNETVTVSASLESVRGNRSLFTDLEAENDVLHCVAFAVPKSSSNEEVMFLTVQVKGPTQEFKKRTTVMVKNEDSLVFVQTDKSIYKPGQTVKFRVVSMDENFHPLNELIPLVYIQDPKGNRIAQWQSFQLEGGLKQFSFPLSSEPFQGSYKVVVQKKSGGRTEHPFTVEEFVLPKFEVQVTVPKIITILEEEMNVSVCGLYTYGKPVPGHVTVSICRKYSDASDCHGEDSQAFCEKFSGQLNSHGCFYQQVKTKVFQLKRKEYEMKLHTEAQIQEEGTVVELTGRQSSEITRTITKLSFVKVDSHFRQGIPFFGQVRLVDGKGVPIPNKVIFIRGNEANYYSNATTDEHGLVQFSINTTNVMGTSLTVRVNYKDRSPCYGYQWVSEEHEEAHHTAYLVFSPSKSFVHLEPMSHELPCGHTQTVQAHYILNGGTLLGLKKLSFYYLIMAKGGIVRTGTHGLLVKQEDMKGHFSISIPVKSDIAPVARLLIYAVLPTGDVIGDSAKYDVENCLANKVDLSFSPSQSLPASHAHLRVTAAPQSVCALRAVDQSVLLMKPDAELSASSVYNLLPEKDLTGFPGPLNDQDDEDCINRHNVYINGITYTPVSSTNEKDMYSFLEDMGLKAFTNSKIRKPKMCPQLQQYEMHGPEGLRVGFYESDVMGRGHARLVHVEEPHTETVRKYFPETWIWDLVVVNSAGVAEVGVTVPDTITEWKAGAFCLSEDAGLGISSTASLRAFQPFFVELTMPYSVIRGEAFTLKATVLNYLPKCIRVSVQLEASPAFLAVPVEKEQAPHCICANGRQTVSWAVTPKSLGNVNFTVSAEALESQELCGTEVPSVPEHGRKDTVIKPLLVEPEGLEKETTFNSLLCPSGGEVSEELSLKLPPNVVEESARASVSVLGDILGSAMQNTQNLLQMPYGCGEQNMVLFAPNIYVLDYLNETQQLTPEIKSKAIGYLNTGYQRQLNYKHYDGSYSTFGERYGRNQGNTWLTAFVLKTFAQARAYIFIDEAHITQALIWLSQRQKDNGCFRSSGSLLNNAIKGGVEDEVTLSAYITIALLEIPLTVTHPVVRNALFCLESAWKTAQEGDHGSHVYTKALLAYAFALAGNQDKRKEVLKSLNEEAVKKDNSVHWERPQKPKAPVGHFYEPQAPSAEVEMTSYVLLAYLTAQPAPTSEDLTSATNIVKWITKQQNAQGGFSSTQDTVVALHALSKYGAATFTRTGKAAQVTIQSSGTFSSKFQVDNNNRLLLQQVSLPELPGEYSMKVTGEGCVYLQTSLKYNILPEKEEFPFALGVQTLPQTCDEPKAHTSFQISLSVSYTGSRSASNMAIVDVKMVSGFIPLKPTVKMLERSNHVSRTEVSSNHVLIYLDKVSNQTLSLFFTVLQDVPVRDLKPAIVKVYDYYETDEFAIAEYNAPCSKDLGNA
notes: Bought plasma protein; also called plasma α2M; serum α2M
On to B1, for which the “inhibition of BMP-1 pCP activity (cleavage of 3H-radiolabeled type I procollagen), IC50” value in assay [1] came to 4.8 nM. In addition, in assay [2], the Ki is 25.2 nM.

B2: recombinant wild type α2-macroglobulin (FLAG-tagged) (other, not shown: small tags and cut ends)
chain: B1 chain
notes: Expressed in 293 T-REx cells with the native signal peptide replaced by the BM40 signal peptide; also called rα2M; recombinant α2M
Regarding B2, the “pCP inhibitory activity, IC50” value in assay [1] turned out to be 133 nM. The Ki in assay [2] amounted to 39.5 nM.
